The values that follow are results of earlier work, collected in paper PMC5123080.

The target of this data set is UNC5B ECD (Mus musculus) (UniProt Q8K1S3).

pKd: −log10 of the molar value.

Sequence of UniProt Q8K1S3 (Q8K1S3 27-377): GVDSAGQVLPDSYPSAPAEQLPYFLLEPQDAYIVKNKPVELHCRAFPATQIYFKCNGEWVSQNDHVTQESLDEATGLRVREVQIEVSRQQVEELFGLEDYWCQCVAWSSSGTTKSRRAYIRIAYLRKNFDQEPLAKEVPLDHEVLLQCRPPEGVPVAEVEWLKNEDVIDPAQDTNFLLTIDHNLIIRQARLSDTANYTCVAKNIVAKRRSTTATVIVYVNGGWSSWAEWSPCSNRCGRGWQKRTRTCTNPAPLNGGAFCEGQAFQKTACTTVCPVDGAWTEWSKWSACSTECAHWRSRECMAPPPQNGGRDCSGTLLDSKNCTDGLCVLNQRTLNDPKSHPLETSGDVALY

In general, pKd refers to −log10 of the Kd, conventionally taken in molar units. As for Robo4 ECD (from UniProt Q8C310), the negative logarithm of the Kd (pKd) was 7.92.
